First the molecules themselves.
T1: EsCas13d, nuclease-dead (Eubacterium siraeum, UniProt B0MS50, R295A;H300A;R849A;H854A)
T1 sequence: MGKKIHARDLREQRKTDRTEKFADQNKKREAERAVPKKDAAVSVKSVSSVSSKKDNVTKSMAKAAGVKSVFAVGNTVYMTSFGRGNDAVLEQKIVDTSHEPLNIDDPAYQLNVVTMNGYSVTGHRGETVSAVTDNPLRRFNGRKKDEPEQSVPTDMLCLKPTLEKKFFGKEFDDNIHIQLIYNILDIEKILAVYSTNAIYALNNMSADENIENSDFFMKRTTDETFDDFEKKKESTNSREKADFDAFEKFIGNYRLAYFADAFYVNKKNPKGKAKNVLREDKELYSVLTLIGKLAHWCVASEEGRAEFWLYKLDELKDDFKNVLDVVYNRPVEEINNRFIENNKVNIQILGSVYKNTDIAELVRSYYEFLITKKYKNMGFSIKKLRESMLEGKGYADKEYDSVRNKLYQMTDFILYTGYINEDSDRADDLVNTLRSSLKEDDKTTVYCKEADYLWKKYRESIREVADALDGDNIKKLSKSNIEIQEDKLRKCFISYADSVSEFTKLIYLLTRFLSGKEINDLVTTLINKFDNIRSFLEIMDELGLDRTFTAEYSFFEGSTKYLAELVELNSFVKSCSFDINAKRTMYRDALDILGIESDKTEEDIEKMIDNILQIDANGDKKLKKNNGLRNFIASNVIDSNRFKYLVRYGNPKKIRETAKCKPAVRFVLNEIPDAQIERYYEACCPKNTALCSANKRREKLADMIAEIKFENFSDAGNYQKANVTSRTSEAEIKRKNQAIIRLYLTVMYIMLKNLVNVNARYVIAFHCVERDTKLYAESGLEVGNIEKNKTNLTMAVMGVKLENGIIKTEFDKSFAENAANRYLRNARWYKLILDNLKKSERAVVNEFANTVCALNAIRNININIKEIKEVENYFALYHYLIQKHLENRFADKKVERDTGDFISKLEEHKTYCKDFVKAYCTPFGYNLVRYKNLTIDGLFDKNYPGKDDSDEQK

B1: target 1 insC 3' of 11,insG 3' of 10 (mixed)
RNA 1: CACCCGUGCAAAAAUGCAGGGGUCUAAAACUGAGCGGAUAACCUCUCUAUGG
RNA 2: GGGAAUGGAUCCACAUCUACGAAUUCGUACCAUAGAGAGGUCUGAUCCGCUCACCGAGAUCGGAAGAGCACACGU
B2: target 1 G15A,A16C (mixed)
RNA 1: CACCCGUGCAAAAAUGCAGGGGUCUAAAACUGAGCGGAUAACCUCUCUAUGG
RNA 2: GGGAAUGGAUCCACAUCUACGAAUUCGUACCAUAGCAAGGUUAUCCGCUCACCGAGAUCGGAAGAGCACACGU
B3: target 1 C2A,A18G (mixed)
RNA 1: CACCCGUGCAAAAAUGCAGGGGUCUAAAACUGAGCGGAUAACCUCUCUAUGG
RNA 2: GGGAAUGGAUCCACAUCUACGAAUUCGUACCAUGGAGAGGUUAUCCGCUAACCGAGAUCGGAAGAGCACACGU
B4: target 1 insU 3' of 12,insU 3' of 9 (mixed)
RNA 1: CACCCGUGCAAAAAUGCAGGGGUCUAAAACUGAGCGGAUAACCUCUCUAUGG
RNA 2: GGGAAUGGAUCCACAUCUACGAAUUCGUACCAUAGAGAGGUUUAUUCCGCUCACCGAGAUCGGAAGAGCACACGU
B5: target 1 U3G,A14C (mixed)
RNA 1: CACCCGUGCAAAAAUGCAGGGGUCUAAAACUGAGCGGAUAACCUCUCUAUGG
RNA 2: GGGAAUGGAUCCACAUCUACGAAUUCGUACCAUAGAGCGGUUAUCCGCGCACCGAGAUCGGAAGAGCACACGU
B6: target 1 insG 3' of 11 (mixed)
RNA 1: CACCCGUGCAAAAAUGCAGGGGUCUAAAACUGAGCGGAUAACCUCUCUAUGG
RNA 2: GGGAAUGGAUCCACAUCUACGAAUUCGUACCAUAGAGAGGUGUAUCCGCUCACCGAGAUCGGAAGAGCACACGU
B7: target 1 C6U,U11G (mixed)
RNA 1: CACCCGUGCAAAAAUGCAGGGGUCUAAAACUGAGCGGAUAACCUCUCUAUGG
RNA 2: GGGAAUGGAUCCACAUCUACGAAUUCGUACCAUAGAGAGGGUAUCUGCUCACCGAGAUCGGAAGAGCACACGU
B8: target 1 insC 3' of 14,insG 3' of 11 (mixed)
RNA 1: CACCCGUGCAAAAAUGCAGGGGUCUAAAACUGAGCGGAUAACCUCUCUAUGG
RNA 2: GGGAAUGGAUCCACAUCUACGAAUUCGUACCAUAGAGACGGUGUAUCCGCUCACCGAGAUCGGAAGAGCACACGU
B9: target 1 C6U,C22U (mixed)
RNA 1: CACCCGUGCAAAAAUGCAGGGGUCUAAAACUGAGCGGAUAACCUCUCUAUGG
RNA 2: GGGAAUGGAUCCACAUCUACGAAUUCGUAUCAUAGAGAGGUUAUCUGCUCACCGAGAUCGGAAGAGCACACGU
B10: target 1 C6A,C7U (mixed)
RNA 1: CACCCGUGCAAAAAUGCAGGGGUCUAAAACUGAGCGGAUAACCUCUCUAUGG
RNA 2: GGGAAUGGAUCCACAUCUACGAAUUCGUACCAUAGAGAGGUUAUUAGCUCACCGAGAUCGGAAGAGCACACGU
B11: target 1 complement block 4-10 (mixed)
RNA 1: CACCCGUGCAAAAAUGCAGGGGUCUAAAACUGAGCGGAUAACCUCUCUAUGG
RNA 2: GGGAAUGGAUCCACAUCUACGAAUUCGUACCAUAGAGAGGUAUAGGCGUCACCGAGAUCGGAAGAGCACACGU
B12: target 1 G12A,A20U (mixed)
RNA 1: CACCCGUGCAAAAAUGCAGGGGUCUAAAACUGAGCGGAUAACCUCUCUAUGG
RNA 2: GGGAAUGGAUCCACAUCUACGAAUUCGUACCUUAGAGAGAUUAUCCGCUCACCGAGAUCGGAAGAGCACACGU
B13: target 1 insG 3' of 21,insU 3' of 18 (mixed)
RNA 1: CACCCGUGCAAAAAUGCAGGGGUCUAAAACUGAGCGGAUAACCUCUCUAUGG
RNA 2: GGGAAUGGAUCCACAUCUACGAAUUCGUACCGAUAUGAGAGGUUAUCCGCUCACCGAGAUCGGAAGAGCACACGU
B14: target 1 C2A,G5C (mixed)
RNA 1: CACCCGUGCAAAAAUGCAGGGGUCUAAAACUGAGCGGAUAACCUCUCUAUGG
RNA 2: GGGAAUGGAUCCACAUCUACGAAUUCGUACCAUAGAGAGGUUAUCCCCUAACCGAGAUCGGAAGAGCACACGU
B15: target 1 del3,del14 (mixed)
RNA 1: CACCCGUGCAAAAAUGCAGGGGUCUAAAACUGAGCGGAUAACCUCUCUAUGG
RNA 2: GGGAAUGGAUCCACAUCUACGAAUUCGUACCAUAGAGGGUUAUCCGCCACCGAGAUCGGAAGAGCACACGU
B16: target 1 U3G,U10A (mixed)
RNA 1: CACCCGUGCAAAAAUGCAGGGGUCUAAAACUGAGCGGAUAACCUCUCUAUGG
RNA 2: GGGAAUGGAUCCACAUCUACGAAUUCGUACCAUAGAGAGGUAAUCCGCGCACCGAGAUCGGAAGAGCACACGU
B17: target 1 insU 3' of 20,insG 3' of 6 (mixed)
RNA 1: CACCCGUGCAAAAAUGCAGGGGUCUAAAACUGAGCGGAUAACCUCUCUAUGG
RNA 2: GGGAAUGGAUCCACAUCUACGAAUUCGUACCAUUAGAGAGGUUAUCCGGCUCACCGAGAUCGGAAGAGCACACGU
B18: target 1 G5U,A9U (mixed)
RNA 1: CACCCGUGCAAAAAUGCAGGGGUCUAAAACUGAGCGGAUAACCUCUCUAUGG
RNA 2: GGGAAUGGAUCCACAUCUACGAAUUCGUACCAUAGAGAGGUUUUCCUCUCACCGAGAUCGGAAGAGCACACGU
B19: target 1 insG 3' of 11,insA 3' of 6 (mixed)
RNA 1: CACCCGUGCAAAAAUGCAGGGGUCUAAAACUGAGCGGAUAACCUCUCUAUGG
RNA 2: GGGAAUGGAUCCACAUCUACGAAUUCGUACCAUAGAGAGGUGUAUCCAGCUCACCGAGAUCGGAAGAGCACACGU
B20: target 1 U3G,A16G (mixed)
RNA 1: CACCCGUGCAAAAAUGCAGGGGUCUAAAACUGAGCGGAUAACCUCUCUAUGG
RNA 2: GGGAAUGGAUCCACAUCUACGAAUUCGUACCAUAGGGAGGUUAUCCGCGCACCGAGAUCGGAAGAGCACACGU
B21: target 1 insC 3' of 20,insG 3' of 2 (mixed)
RNA 1: CACCCGUGCAAAAAUGCAGGGGUCUAAAACUGAGCGGAUAACCUCUCUAUGG
RNA 2: GGGAAUGGAUCCACAUCUACGAAUUCGUACCACUAGAGAGGUUAUCCGCUCGACCGAGAUCGGAAGAGCACACGU
B22: target 1 U10C,G12U (mixed)
RNA 1: CACCCGUGCAAAAAUGCAGGGGUCUAAAACUGAGCGGAUAACCUCUCUAUGG
RNA 2: GGGAAUGGAUCCACAUCUACGAAUUCGUACCAUAGAGAGUUCAUCCGCUCACCGAGAUCGGAAGAGCACACGU
B23: target 1 insG 3' of 18,insG 3' of 9 (mixed)
RNA 1: CACCCGUGCAAAAAUGCAGGGGUCUAAAACUGAGCGGAUAACCUCUCUAUGG
RNA 2: GGGAAUGGAUCCACAUCUACGAAUUCGUACCAUAGGAGAGGUUAGUCCGCUCACCGAGAUCGGAAGAGCACACGU
B24: target 1 insU 3' of 13,insA 3' of 7 (mixed)
RNA 1: CACCCGUGCAAAAAUGCAGGGGUCUAAAACUGAGCGGAUAACCUCUCUAUGG
RNA 2: GGGAAUGGAUCCACAUCUACGAAUUCGUACCAUAGAGAGUGUUAUCACGCUCACCGAGAUCGGAAGAGCACACGU
B25: target 1 insU 3' of 21,insG 3' of 10 (mixed)
RNA 1: CACCCGUGCAAAAAUGCAGGGGUCUAAAACUGAGCGGAUAACCUCUCUAUGG
RNA 2: GGGAAUGGAUCCACAUCUACGAAUUCGUACCUAUAGAGAGGUUGAUCCGCUCACCGAGAUCGGAAGAGCACACGU
B26: target 1 insU 3' of 14,insG 3' of 11 (mixed)
RNA 1: CACCCGUGCAAAAAUGCAGGGGUCUAAAACUGAGCGGAUAACCUCUCUAUGG
RNA 2: GGGAAUGGAUCCACAUCUACGAAUUCGUACCAUAGAGAUGGUGUAUCCGCUCACCGAGAUCGGAAGAGCACACGU
B27: target 1 U3C,A9C (mixed)
RNA 1: CACCCGUGCAAAAAUGCAGGGGUCUAAAACUGAGCGGAUAACCUCUCUAUGG
RNA 2: GGGAAUGGAUCCACAUCUACGAAUUCGUACCAUAGAGAGGUUCUCCGCCCACCGAGAUCGGAAGAGCACACGU

These results are taken from paper PMC10786891, “Massively parallel profiling of RNA-targeting CRISPR-Cas13d”.

This data set concerns the target T1, EsCas13d, nuclease-dead. Nature of the data set: crRNA (strand 1, pre-loaded); Mg2+; 40 mM Tris-HCl pH 7.5, 150 mM NaCl, 6 mM MgCl2, 1 mM DTT, 0.1% Tween-20, 0.2 mg/ml BSA; 25 C; 10 min per concentration, then washed. The note with it: tags: His6-TwinStrep-SUMO cleaved; N-terminal SNAP kept (SNAP-Surface 488); label: 3' end held by stalled T7 RNA polymerase.
Turning to B1, the dissociation constant Kd was 0.0234 ± 0.0025 µM.

For B2, the dissociation constant (Kd) was 0.0305 ± 0.0027 µM.

The molecule B3 showed a Kd of 0.064 ± 0.018 µM.

As to B4, the affinity, expressed as Kd, was 0.029 ± 0.005 µM. This Kd lies about 2.2-fold lower than the previous one.

For the molecule B5, the Kd came to 0.0286 ± 0.0018 µM.

As to B6, the Kd was 0.0333 ± 0.0031 µM.

As to B7, binding was put at a Kd of 0.0162 ± 0.0009 µM.

Regarding B8, the Kd is 0.057 ± 0.013 µM.

Take B9: the Kd came to 0.0148 ± 0.0019 µM.

For the molecule B10, the dissociation constant Kd was 0.0071 ± 0.0005 µM.

Take B11: the Kd is 0.0134 ± 0.0004 µM.

As to B12, the Kd stood at 0.0157 ± 0.0009 µM.

For the molecule B13, the affinity, expressed as Kd, was 0.077 ± 0.022 µM.

Turning to B14, the dissociation constant (Kd) turned out to be 0.00652 ± 0.00032 µM.

In turn, B15 yielded a dissociation constant Kd of 0.044 ± 0.004 µM.

Regarding B16, binding was characterised by a dissociation constant (Kd) of 0.0172 ± 0.0013 µM.

With B17, the Kd came out at 0.0163 ± 0.0009 µM.

Regarding B18, binding was put at a Kd of 0.097 ± 0.02 µM.

B19 had a Kd of 0.094 ± 0.029 µM.

As for B20, the Kd came to 0.0271 ± 0.0015 µM.

For B21, the affinity, expressed as Kd, was 0.0116 ± 0.0005 µM.

B22 came in with a Kd of 0.024 ± 0.004 µM.

Molecule B23 returned a Kd of 0.049 ± 0.008 µM.

B24 registered a dissociation constant (Kd) of 0.0136 ± 0.0006 µM.

With B25, the Kd came to 0.082 ± 0.023 µM.

Take B26: the dissociation constant (Kd) is 0.08 ± 0.04 µM.

Molecule B27 yielded a Kd of 0.0284 ± 0.003 µM.
